One substance from PMC7080496 can be followed below.

For assay [1], the target named is Adenosine A2A receptor (A2AAR), human, residues 1 to 316, with the M1A/M4T mutation, reconstituted in rHDLs (nanodiscs) (human) (UniProt P29274).
For assay [2] the target is unchanged. The source holds these as a separate data set.
Assay [3] has the same target. This is another data set of the same source.

heterotrimeric G protein consisting of human Gαs, bovine Gβ1, and human Gγ2, sequence (P63092 whole entry): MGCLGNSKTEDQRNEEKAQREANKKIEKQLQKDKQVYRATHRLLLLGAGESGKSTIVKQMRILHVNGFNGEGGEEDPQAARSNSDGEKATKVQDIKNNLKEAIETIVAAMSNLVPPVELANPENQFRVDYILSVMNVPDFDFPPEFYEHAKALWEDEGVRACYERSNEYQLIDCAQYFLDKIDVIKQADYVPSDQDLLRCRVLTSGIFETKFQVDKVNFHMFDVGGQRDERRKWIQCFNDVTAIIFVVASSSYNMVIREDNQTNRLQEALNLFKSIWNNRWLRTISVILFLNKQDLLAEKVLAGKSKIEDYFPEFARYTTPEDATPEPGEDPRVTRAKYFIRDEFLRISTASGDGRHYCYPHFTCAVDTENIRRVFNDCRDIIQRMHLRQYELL
heterotrimeric G protein consisting of human Gαs, bovine Gβ1, and human Gγ2, sequence (P62871 whole entry): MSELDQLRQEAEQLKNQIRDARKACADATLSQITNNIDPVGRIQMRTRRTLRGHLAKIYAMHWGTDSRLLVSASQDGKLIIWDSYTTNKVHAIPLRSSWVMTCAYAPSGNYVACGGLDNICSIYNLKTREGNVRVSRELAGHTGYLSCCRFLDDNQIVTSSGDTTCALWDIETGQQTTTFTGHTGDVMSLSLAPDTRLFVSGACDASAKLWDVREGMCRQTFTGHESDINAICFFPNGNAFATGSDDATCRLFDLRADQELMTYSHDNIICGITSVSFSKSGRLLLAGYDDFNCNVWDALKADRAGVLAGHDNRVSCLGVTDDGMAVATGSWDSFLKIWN
heterotrimeric G protein consisting of human Gαs, bovine Gβ1, and human Gγ2, sequence (P59768 whole entry): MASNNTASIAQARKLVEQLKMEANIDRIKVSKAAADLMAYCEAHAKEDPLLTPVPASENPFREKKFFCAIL
Adenosine A2A receptor (A2AAR), human, residues 1 to 316, with the M1A/M4T mutation, reconstituted in rHDLs (nanodiscs) (human), sequence (P29274 1-316 M1A/M4T): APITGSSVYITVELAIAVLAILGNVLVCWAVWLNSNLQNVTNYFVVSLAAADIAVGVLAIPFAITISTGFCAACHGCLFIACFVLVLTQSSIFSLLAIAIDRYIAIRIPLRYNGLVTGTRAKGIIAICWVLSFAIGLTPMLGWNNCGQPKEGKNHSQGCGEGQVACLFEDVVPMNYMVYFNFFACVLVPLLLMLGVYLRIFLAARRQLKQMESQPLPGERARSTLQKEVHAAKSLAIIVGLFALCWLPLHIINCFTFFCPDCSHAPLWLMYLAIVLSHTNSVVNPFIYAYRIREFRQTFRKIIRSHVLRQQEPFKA

“heterotrimeric G protein consisting of human Gαs, bovine Gβ1, and human Gγ2 (from UniProt P63092 1-394; P62871 1-340; P59768 1-71) (complex)”: the initial [35S]-GTPγS binding rate, A2AAR in rHDL(DHA) in which DHA constitutes 15% of the acyl chains, against A2AAR in rHDL(POPC/POPG) in assay [1] stood at 1.29 times. In assay [2], this substance came in with an initial [35S]-GTPγS binding rate, A2AAR in rHDL(ARA) against A2AAR in rHDL(POPC/POPG), full agonist of 1.1 times and an initial [35S]-GTPγS binding rate, A2AAR in rHDL(DHA) against A2AAR in rHDL(POPC/POPG), full agonist of 1.88 times. Besides, the GDP/GTP reaction rate, A2AAR in rHDL(DHA) against A2AAR in rHDL(ARA) in assay [3] came to 1.7 fold.
